{
  "source": "patent US20100064383A1",
  "biological_target": "bHLH protein EGL3 from Arabidopsis (Arabidopsis) (UniProt Q9CAD0)",
  "sequence (Q9CAD0 whole entry)": "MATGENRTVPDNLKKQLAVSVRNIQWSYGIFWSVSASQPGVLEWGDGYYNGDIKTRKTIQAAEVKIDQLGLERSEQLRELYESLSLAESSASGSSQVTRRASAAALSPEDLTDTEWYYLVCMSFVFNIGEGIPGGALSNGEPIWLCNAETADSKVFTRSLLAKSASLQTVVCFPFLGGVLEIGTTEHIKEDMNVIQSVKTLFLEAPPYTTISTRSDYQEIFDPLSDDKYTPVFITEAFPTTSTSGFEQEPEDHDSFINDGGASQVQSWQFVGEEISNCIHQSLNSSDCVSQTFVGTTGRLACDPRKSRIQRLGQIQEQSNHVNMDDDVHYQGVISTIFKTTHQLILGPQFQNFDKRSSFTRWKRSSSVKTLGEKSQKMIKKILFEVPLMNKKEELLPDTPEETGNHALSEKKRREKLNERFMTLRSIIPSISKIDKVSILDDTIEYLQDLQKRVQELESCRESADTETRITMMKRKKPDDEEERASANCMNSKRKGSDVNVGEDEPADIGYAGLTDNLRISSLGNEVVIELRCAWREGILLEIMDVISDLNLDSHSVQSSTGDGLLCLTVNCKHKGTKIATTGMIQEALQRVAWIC",
  "assay": "cell-based or functional assay",
  "data": [
    {"substance": "VvMYBPA1", "values": [
      {"measurement": "induction of the VvLDOX promoter, dual-luciferase transient assay in grape cells (fold over control without MYB factor)", "result": 125, "unit": "fold"}
    ]}
  ]
}
